What was measured:
[1] = target: GM-CSF receptor on human CD34+ cord blood cells (human (endogenous in CD34+ cord blood cells)) (UniProt P32927); assay: radioligand binding
[2] = target: GM-CSF receptor on TF-1 cells (human (endogenous in TF-1)) (UniProt P32927); assay: radioligand binding

| KD of the high-affinity site [1] [pM] | percent by which the IC50 is less than for full-length GM-CSF [2] [%] | Substance |
| --- | --- | --- |
| 734 | – | DPP4-truncated recombinant human [125I]-GM-CSF (ligand) |
| – | 88 | unlabeled DPP4-truncated recombinant human GM-CSF (ligand) |

From paper PMC3742313
